Data on three substances can be found in patent publication US20210179684A1.

Assay [1] addresses p75 neurotrophin receptor on cells (NIH-p75). The experiment in a line: flow cytometry on NIH-p75 cells; 20 nM Biotin-NT3, fluorescent avidin; no competitor.
The target in assay [2] is TrkC receptor on cells (NIH-TrkC). Briefly: flow cytometry on NIH-TrkC cells; 20 nM Biotin-NT3, fluorescent avidin; no competitor. For orientation: Flow cytometry measures light scatter and fluorescence of single cells or particles in a stream.
The target in assay [3] is TrkA receptor on cells (NIH-TrkA). Briefly: flow cytometry on NIH-TrkA cells; 20 nM Biotin-NT3, fluorescent avidin; no competitor.
Assay [4] addresses p75 neurotrophin receptor on cells (NIH-p75). The experiment in a line: competition flow cytometry on NIH-p75 cells; 20 nM Biotin-NT3 tracer, cold competitor at 200 nM; value is the tracer signal left.
The target is the same in assay [5]. Briefly: competition flow cytometry on NIH-p75 cells; 20 nM Biotin-NT3 tracer, cold competitor at 200 nM; value is the tracer binding left.
The target of assay [6] is TrkC receptor on cells (NIH-TrkC). Briefly: competition flow cytometry on NIH-TrkC cells; 20 nM Biotin-NT3 tracer, cold competitor at 200 nM; value is the tracer binding left.
Assay [7] addresses TrkA receptor on cells (NIH-TrkA). Briefly: competition flow cytometry on NIH-TrkA cells; 20 nM Biotin-NT3 tracer, cold competitor in 3-fold excess; value is the tracer signal left.
Assay [8] has as its target TrkC receptor on cells (NIH-TrkC). Briefly: cell-based or functional assay.
Assay [9] shares this target. The experiment in a line: competition flow cytometry on NIH-TrkC cells; 20 nM Biotin-NT3 tracer, cold competitor at 200 nM; value is the tracer signal left.
The target in assay [10] is TrkA receptor on cells (NIH-TrkA). The experiment in a line: competition flow cytometry on NIH-TrkA cells; 20 nM Biotin-NT3 tracer, cold competitor in 3-fold excess; value is the tracer binding left.

Take “Biotin-NT-3 (wild type NT-3 covalently linked to biotin, tracer) (from UniProt P18280 140-258) (ligand)”: the values for the MCF (mean channel fluorescence) in assay [1], in [2] and in [3] were 76, 93 and 38, respectively.
Turning to “NT-3 mutant (SEQ ID NO: 23), D15A/R114A/K115A (from UniProt P18280 140-258) (ligand)”, the MCF (mean channel fluorescence) in assay [4] worked out at 69; in assay [7] it was 16. Besides, in assay [5], the % of maximal binding to p75 was 89%. The substance further came in with a % of maximal binding to TrkC in assay [6] of 13%.
“Wild type NT-3 (neurotrophin 3, mature form), unlabeled (from UniProt P18280 140-258) (ligand)” showed a % survival at 0.1 nM in culture in assay [8] of 34%. Moreover, the MCF (mean channel fluorescence) in assay [9] is 25; in [7] it was 20. The % of maximal binding to TrkC in assay [6] is 18%. For the same substance, in assay [10], the % of maximal binding to TrkA was found to be 36%.
